Experimental findings from PMC8449268, “Activity of the yeast vacuolar TRP channel TRPY1 is inhibited by Ca^2+–calmodulin binding” (The Journal of Biological Chemistry, 2021) are described below.

Conditions in all cases: both partners purified
Experiment [1] addresses T1, GST-Cmd1 (yeast calmodulin fused to glutathione-S-transferase) (S. cerevisiae (yeast), UniProt P06787 1-147).
T1 construct: Yeast calmodulin Cmd1, wild type; In the peptide scan the same fusion protein was used ^14C-labelled (^14C-GST-Cmd1); also called GST-fused Cmd1; yeast CaM; source: E. coli, purified (glutathione sepharose)
Kind of experiment: pull-down; MBP-fused TRPY1 fragments (12 ug) immobilised on amylose resin, incubated with 12 ug GST-Cmd1 or GST-Cmd1–6 with 2 mM Ca2+, 60 min, 4 °C; bound protein detected by anti-GST blot.

In a further experiment the target is T2, 6His-Cmd1 (S. cerevisiae (yeast), UniProt P06787 1-147).
T2 construct: Yeast calmodulin Cmd1, wild type; also called yeast CaM; source: E. coli, purified (Ni–NTA agarose)
T2 sequence (P06787 whole entry): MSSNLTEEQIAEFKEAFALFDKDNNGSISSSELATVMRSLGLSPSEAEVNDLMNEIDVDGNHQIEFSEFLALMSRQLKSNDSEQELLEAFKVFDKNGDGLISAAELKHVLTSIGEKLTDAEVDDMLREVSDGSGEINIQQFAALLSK
The experiment can be described thus: pull-down; GST, GST-Cmd1 or GST-TRPY1-C (12 ug) immobilised on glutathione sepharose; 6His-Sumo-TRPY1-N or 12 ug 6His-Cmd1 added, 2 mM CaCl2, 60 min, 4 °C; SDS-PAGE and Coomassie blue staining.

In experiment [2] the target is T1, GST-Cmd1 (yeast calmodulin fused to …). Kind of experiment: peptide or protein array; 20-mer TRPY1 peptides shifted by five residues on cellulose membrane (16 nmoles per spot); ^14C-GST-Cmd1 (60 cpm per spot) in 50 mM Tris pH 7.5, 150 mM NaCl, 0.1% Triton X-100, 2 mM CaCl2, 4 °C, 16 h; autoradiography.

T1 sequence (P06787 whole entry, the tested form may be a part): as the sequence (P06787 whole entry) above

B1: MBP-TRPY1-C (cytosolic C terminus of TRPY1 fused to maltose-binding protein) (domain or fragment, S. cerevisiae, UniProt Q12324 538-675, looked up)
chain: KETREARRIKYNRMKRLNDDANEYDTPWDLTDGYLDDDDGLFSDNRNSGMRATQLKNSRSLKLQRTAEQEDVHFKVPKKWYKNVKKCSPSFEQYDNDDTEDDAGEDKDEVKELTKKVENLTAVITDLLEKLDIKDKKE
notes: TRPY1 (Yvc1, gene YVC1), Saccharomyces cerevisiae; cytosolic C terminus, printed as 137 amino acids, residues 538-675 (K538 to E675); The limits 538-675 are printed for GST-TRPY1-C and for 'the complete recombinant TRPY1 C terminus'; also called MBP-fused TRPY1-C; Yvc1 C terminus; source: E. coli, purified (amylose resin)
Take B1: the binding result in experiment [1] is recorded as “binds”.

B2: GST-TRPY1-C (538–675) (domain or fragment, S. cerevisiae, UniProt Q12324 538-675, looked up)
chain: B1 chain
notes: TRPY1 (Yvc1), Saccharomyces cerevisiae; cytosolic C terminus, printed as 137 amino acids, residues 538-675 (K538 to E675); also called GST-tagged TRPY1-C; source: E. coli, purified (glutathione sepharose)
On to B2, for which, in the experiment with 6His-Cmd1, the binding result is “binds”.

B3: TRPY1 C-terminal peptide of the peptide scan, residues 527–546 (peptide, UniProt Q12324 527-546, looked up)
peptide: VYSPFLLLISVKETREARRI
notes: source: synthetic peptide, spot-synthesised on cellulose membrane
Turning to B3, in experiment [2], the binding result is recorded as “binds”.
